Results published in patent US20110129457A1 (CURIS, published 2011).
One block for each binder: values may come before it.

B7: Hhip1β12 (β-propeller-EGF1-EGF2, residues 193-667), C-terminal His6-tag (receptor)
chain: SNYLDQMEEYDKVEEISRKHKHNCFCIQEVVSGLRQPVGALHSGDGSQRLFILEKEGYVKILTPEGEIFKEPYLDIHKLVQSGIKGGDERGLLSLAFHPNYKKNGKLYVSYTTNQERWAIGPHDHILRVVEYTVSRKNPHQVDLRTARVFLEVAELHRKHLGGQLLFGPDGFLYIILGDGMITLDDMEEMDGLSDFTGSVLRLDVDTDMCNVPYSIPRSNPHFNSTNQPPEVFAHGLHDPGRCAVDRHPTDININLTILCSDSNGKNRSSARILQIIKGKDYESEPSLLEFKPFSNGPLVGGFVYRGCQSERLYGSYVFGDRNGNFLTLQQSPVTKQWQEKPLCLGTSGSCRGYFSGHILGFGEDELGEVYILSSSKSMTQTHNGKLYKIVDPKRPLMPEECRATVQPAQTLTSECSRLCRNGYCTPTGKCCCSPGWEGDFCRTAKCEPACRHGGVCVRPNKCLCKKGYLGPQCEHHHHHH

How the values were obtained:
[1] = molecular target: fully lipid-modified Shh secreted by human HT29 cells (human, UniProt Q15465 24-197, N-terminal palmitoyl and C-terminal cholesterol modifications); test: cell-based or functional assay
[2] = molecular target: T1, Shh-Flag (human Shh residues 25-197 with C-terminal Flag-Tag) (human, UniProt Q15465 25-197); test: competition ELISA: Hip-L2 peptide dilution with 800 nM Hhip protein on Shh-Flag captured by anti-Flag M2, anti-His-HRP detection
T1 construct: range 25-197; not shown: C-terminal Flag-Tag

[3] = molecular target: T2, full length human Patched-1 on 293 cells (Ptch1-293 clone 10) (human, UniProt Q13635 1-1447); test: FACS competition: 1 nM Shh649 with inhibitor on Ptch1 expressing cells
T2 construct: whole, on cells; also called Ptch1 expressing cells; Ptch1-293 cells
T2 sequence (looked up): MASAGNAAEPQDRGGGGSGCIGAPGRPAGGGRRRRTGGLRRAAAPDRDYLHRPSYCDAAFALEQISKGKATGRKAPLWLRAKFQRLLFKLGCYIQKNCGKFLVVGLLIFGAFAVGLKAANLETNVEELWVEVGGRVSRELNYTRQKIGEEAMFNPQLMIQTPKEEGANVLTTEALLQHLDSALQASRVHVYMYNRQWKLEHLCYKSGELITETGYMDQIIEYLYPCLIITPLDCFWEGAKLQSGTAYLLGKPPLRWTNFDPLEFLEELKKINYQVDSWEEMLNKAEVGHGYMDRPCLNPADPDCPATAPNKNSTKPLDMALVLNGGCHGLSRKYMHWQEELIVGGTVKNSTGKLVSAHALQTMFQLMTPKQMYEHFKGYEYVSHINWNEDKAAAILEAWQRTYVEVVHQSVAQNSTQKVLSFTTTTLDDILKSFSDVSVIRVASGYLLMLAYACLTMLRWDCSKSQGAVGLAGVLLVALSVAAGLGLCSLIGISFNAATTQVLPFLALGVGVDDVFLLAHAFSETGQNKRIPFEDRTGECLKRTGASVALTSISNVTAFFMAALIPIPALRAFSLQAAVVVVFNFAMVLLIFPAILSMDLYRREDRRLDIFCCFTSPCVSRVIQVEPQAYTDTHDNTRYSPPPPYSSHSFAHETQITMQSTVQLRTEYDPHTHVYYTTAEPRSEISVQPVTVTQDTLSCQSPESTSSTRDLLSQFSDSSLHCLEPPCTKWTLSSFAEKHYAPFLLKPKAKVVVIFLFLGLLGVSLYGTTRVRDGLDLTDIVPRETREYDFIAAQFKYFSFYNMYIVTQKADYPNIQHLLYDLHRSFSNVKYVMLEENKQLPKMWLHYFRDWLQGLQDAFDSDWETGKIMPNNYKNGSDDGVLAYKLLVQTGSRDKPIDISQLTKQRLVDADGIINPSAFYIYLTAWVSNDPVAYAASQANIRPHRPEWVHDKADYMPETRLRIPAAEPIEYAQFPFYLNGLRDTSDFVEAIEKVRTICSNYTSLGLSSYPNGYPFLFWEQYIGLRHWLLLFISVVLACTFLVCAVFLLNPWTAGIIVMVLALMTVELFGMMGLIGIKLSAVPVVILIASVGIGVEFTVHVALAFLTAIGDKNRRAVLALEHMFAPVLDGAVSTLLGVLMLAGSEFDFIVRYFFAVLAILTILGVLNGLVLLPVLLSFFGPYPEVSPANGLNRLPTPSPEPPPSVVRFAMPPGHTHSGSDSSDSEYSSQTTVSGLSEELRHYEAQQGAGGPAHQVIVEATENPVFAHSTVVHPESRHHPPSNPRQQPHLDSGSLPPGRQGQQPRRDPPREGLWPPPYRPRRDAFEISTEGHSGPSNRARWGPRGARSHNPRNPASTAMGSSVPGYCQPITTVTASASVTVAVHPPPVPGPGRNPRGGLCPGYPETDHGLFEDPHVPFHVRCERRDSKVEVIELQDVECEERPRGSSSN

[4] = molecular target: B7; test: competition ELISA: unlabeled Hh against 5 nM biotinylated-ShhN-Cys for immobilized Hhip1β12
[5] = molecular target: B7; test: competition ELISA as in paragraph 570; the legend gives Ihh and Shh the other way round
[6] = molecular target: T2, full length human Patched-1 on 293 …; test: FACS competition: unlabeled Ihh against 1 nM Shh649 for Ptch1-expressing 293 cells
[7] = molecular target: B7; test: competition ELISA: unlabeled Ihh against 5 nM biotinylated ShhN-Cys for immobilized Hhip1β12

- IC50, inhibition of Gli-luciferase activity in HT29/S12 co-culture [1]: 20.3 nM
- fold of IC50 against Hhip1ECD, Gli-luciferase co-culture [1]: ~4 fold
B1: Hhip1β1 (β-propeller-EGF1, residues 193-637), C-terminal His6-tag (receptor)
chain: SNYLDQMEEYDKVEEISRKHKHNCFCIQEVVSGLRQPVGALHSGDGSQRLFILEKEGYVKILTPEGEIFKEPYLDIHKLVQSGIKGGDERGLLSLAFHPNYKKNGKLYVSYTTNQERWAIGPHDHILRVVEYTVSRKNPHQVDLRTARVFLEVAELHRKHLGGQLLFGPDGFLYIILGDGMITLDDMEEMDGLSDFTGSVLRLDVDTDMCNVPYSIPRSNPHFNSTNQPPEVFAHGLHDPGRCAVDRHPTDININLTILCSDSNGKNRSSARILQIIKGKDYESEPSLLEFKPFSNGPLVGGFVYRGCQSERLYGSYVFGDRNGNFLTLQQSPVTKQWQEKPLCLGTSGSCRGYFSGHILGFGEDELGEVYILSSSKSMTQTHNGKLYKIVDPKRPLMPEECRATVQPAQTLTSECSRLCRNGYCTPTGKCCCSPGWEGDFCRTAHHHHHH

- IC50 [2]: 150000 nM
B2: Hip-L2 peptide (GDGMITLDDMEEMDGLSDFTG) of the competition ELISA (peptide)
peptide: GDGMITLDDMEEMDGLSDFTG
notes: also called Hhip1-L2 peptide; peptide derived from the Hhip1β12 L2 loop

- IC50 [3]: 0.64 nM
B3: octyl-Ihh (octylated Ihh wildtype) (ligand)
chain: not shown
modifications: octylated (site not stated)

- IC50 [3]: 10 nM
B4: octyl-T154I (octylated Ihh T154I) (ligand)
chain: not shown
modifications: octylated (site not stated)

- IC50 [3]: 140 nM
B5: Ihh T154I (type A1 brachydactyly mutant) (ligand)
chain: not shown

- IC50 [4]: 40 nM
B6: Human Dhh (residues 24-198), N-terminal His6-tag (ligand)
chain: not shown
notes: range 24-198; also called Desert Hedgehog

Binder: B7
- IC50, inhibition of Gli-luciferase activity in HT29/S12 co-culture [1]: 5 nM

- IC50, Gli-luciferase co-culture assay [1]: ~10 nM
- fold of IC50 against wildtype Hipβ12, Gli-luciferase co-culture assay [1]: 2 fold
B8: Hhip1β12 D383A (receptor)
chain: SNYLDQMEEYDKVEEISRKHKHNCFCIQEVVSGLRQPVGALHSGDGSQRLFILEKEGYVKILTPEGEIFKEPYLDIHKLVQSGIKGGDERGLLSLAFHPNYKKNGKLYVSYTTNQERWAIGPHDHILRVVEYTVSRKNPHQVDLRTARVFLEVAELHRKHLGGQLLFGPDGFLYIILGDGMITLDDMEEMAGLSDFTGSVLRLDVDTDMCNVPYSIPRSNPHFNSTNQPPEVFAHGLHDPGRCAVDRHPTDININLTILCSDSNGKNRSSARILQIIKGKDYESEPSLLEFKPFSNGPLVGGFVYRGCQSERLYGSYVFGDRNGNFLTLQQSPVTKQWQEKPLCLGTSGSCRGYFSGHILGFGEDELGEVYILSSSKSMTQTHNGKLYKIVDPKRPLMPEECRATVQPAQTLTSECSRLCRNGYCTPTGKCCCSPGWEGDFCRTAKCEPACRHGGVCVRPNKCLCKKGYLGPQCEHHHHHH

- IC50, Gli-luciferase co-culture assay [1]: 57 nM
- fold change of IC50, Gli-luciferase co-culture assay [1]: ~13 fold
B9: Hhip1β12 D383R (receptor)
chain: SNYLDQMEEYDKVEEISRKHKHNCFCIQEVVSGLRQPVGALHSGDGSQRLFILEKEGYVKILTPEGEIFKEPYLDIHKLVQSGIKGGDERGLLSLAFHPNYKKNGKLYVSYTTNQERWAIGPHDHILRVVEYTVSRKNPHQVDLRTARVFLEVAELHRKHLGGQLLFGPDGFLYIILGDGMITLDDMEEMRGLSDFTGSVLRLDVDTDMCNVPYSIPRSNPHFNSTNQPPEVFAHGLHDPGRCAVDRHPTDININLTILCSDSNGKNRSSARILQIIKGKDYESEPSLLEFKPFSNGPLVGGFVYRGCQSERLYGSYVFGDRNGNFLTLQQSPVTKQWQEKPLCLGTSGSCRGYFSGHILGFGEDELGEVYILSSSKSMTQTHNGKLYKIVDPKRPLMPEECRATVQPAQTLTSECSRLCRNGYCTPTGKCCCSPGWEGDFCRTAKCEPACRHGGVCVRPNKCLCKKGYLGPQCEHHHHHH

- IC50 [3]: 1.1 nM
- IC50 [5]: 53 nM
- IC50 [4]: 87 nM
- IC50 (read off the curve) [6]: ~3 nM
- IC50 (read off the curve) [7]: ~90 nM
B10: Human Ihh (residues 29-202), N-terminal His6-tag (ligand)
chain: not shown
notes: range 29-202; also called His6-Ihh; Indian Hedgehog
